Test results from publication PMC6163455 (Biomolecules, 2018).

Key:
[1] = system: CHO-K1/SpyC_C-BLA cells; test: live-cell confocal microscopy of split β-lactamase complementation; assay type: cell-based, Chinese hamster; settings: for cytosolic delivery and β-lactamase complementation signal by confocal microscopy: CHO-K1/SpyC_C-BLA cells, 4 µM protein, live cell confocal microscopy, Figure 3c–f
From the text: (a) Live-cell functional uptake can be measured when N-terminal β-lactamase (N-BLA), fused to a CPP sequence, penetrates the cell membrane to complement C-terminal β-lactamase protein (C-BLA) in the cytosol (step i). Expression of the split β-lactamase moieties as fusions with either SpyTag (CPP_N-BLA_SpyT) or SpyCatcher (SpyC_C-BLA) facilitates rapid formation of functional β-lactamase proteins through SpyT/SpyC ligation inside the cells (step ii). This internalization is detected after addition of dye substrate (step iii) through cleavage of cytosol-retained CCF2 (step iv), which is measured via a change in fluorescence signal from green (520 nm) to blue (450 nm). (b) Internalization of CPP_N-BLA_SpyT and β-lactamase complementation in CHO-K1/SpyC_C-BLA cells is dose-dependent, measured by CCF2 cleavage (increase in % blue viable cells as estimated by flow cytometry). […] Error bars represent standard error of the mean of two independent experiments (duplicate samples). […] Bar scale is 50 µm.
(§1) Successful complementation of β-lactamase was dose- and CPP-dependent, with a limit of detection of ≤1 µM of CPP_N-BLA_SpyT. β-Lactamase complementation and N-BLA fragment internalization was visually confirmed using live cell confocal microscopy in CHO-K1/SpyC_C-BLA cells treated with Phylomer CPP_N-BLA_SpyT proteins (Figure 3c–f). The fluorescence signal is detectable as early as 30 min (Figure S2a). Signal conversion over time was confirmed by imaging cells treated with 1746c27_N-BLA_SpyT at sequential time points (Figure S2b,c), thus completing validation of the split assay system.
Cells were seeded (CHO-K1, 37,500 cells/mL; T47D 37,500 cells/mL) onto 4-well ibiTreat chamber slides (Thermo Fisher Scientific) and incubated for 48 h at 37 °C, 5% CO2. The medium was removed and replaced with medium containing SpyC_BLA/CPP_SpyT conjugated or unconjugated SpyC_BLA proteins and cells were incubated for 2 h at 37 °C, 5% CO2. After incubation, the cells were washed to remove any SpyC_BLA protein that had not internalized, loaded with substrate CCF2-AM (2 µM final concentration in media containing 1% FCS), and incubated for 1 h at room temperature. Live cells were visualized through confocal microscopy. Images were collected using a Nikon C2 Confocal Microscope through a 40× differential interference contrast (DIC) objective after excitation by a 408 nm laser. Bar scales in images represent 50 µm or 14.6 µm (zoom magnification 3.4×).
Figure S2. Split β-lactamase assay time course.
Live cell confocal microscopy imaging the CPP-mediated cytosolic internalization of 1746c27_N-BLA_SpyT (8 µM) in CHO-K1/C-BLA cells at (a) 30 min, (b) 60 min, and (c) 120 min after addition of CCF2-AM dye. The β-lactamase complementation signal is detectable as early as 30 min and continues to convert over time. Repeated excitation over time results in photobleaching of the converted fluorescence resonance energy transfer (FRET) substrate. Bar scale is 50 µm. […]
(also on this page, place not known: De ad ( B) ( D) ( E) 1746c27_N-BLA_SpyT + CHO-K1/SpyC_C-BLA) […]

[2] = system: CHO-K1/SpyC_C-BLA cells; test: split β-lactamase cytosolic delivery assay (CCF2-AM, flow cytometry); assay type: cell-based, Chinese hamster; settings: CHO-K1/SpyC_C-BLA stable cells, blue fluorescent cells after 1 h, two independent experiments, duplicate samples, Figure 3b
From the text: SpyT/SpyC ligation enables specific covalent linkage of the split components when mixed together, thus reactivating β-lactamase activity. SpyC_C-BLA was selected for mammalian expression in stable cell lines, and N-BLA_SpyT was selected for CPP incorporation onto its N-terminus (CPP_N-BLA_SpyT). Constitutively expressed SpyC_C-BLA in the cytoplasm of stable cell lines can be complemented by CPP-delivered N-BLA_SpyT, thus forming functional β-lactamase.
In brief, CPP sequences are made as fusions to N-BLA_SpyT (CPP_N-BLA_SpyT, Figure 3a, step i). […] Cell penetrating peptide-dependent β-lactamase complementation and activity is detected by cleavage of the CCF2 substrate (Figure 3a, step iv). As in the full-length β-lactamase internalization assay, this reaction is measured as a shift in fluorescent signal from green to blue. […]
as §1, with “Signal conversion over time was confirmed by imaging cells treated with 1746c27_N-BLA_SpyT at sequential time points (Figure S2b,c), thus completing validation of the split assay system.” left out

B1: 1746c27_N-BLA_SpyT: phylomer CPP 1746c27 fused to N-terminal β-lactamase fragment and SpyTag (protein)
chain: MASKKKKQPPKPKKPKTQEKKKKQPPKPKRASSGSHHHHHHGTGAGSGHPETLVKVKDAEDQLGARVGYIELDLNSGKILESFRPEERFPMMSTFKVLLCGAVLSRIDAGQEQLGRRIHYSQNDLVEYSPVTEKHLTDGMTVRELCSAAITMSDNTAANLLLTTIGGPKELTAFLHNMGDHVTRLDRWEPELNEAIPNDERDTTTPAAMATTLRKLLTGGGSASGGSGTGATSGAHIVMVDAYKPTKGGTGGS
modifications: left off: His6, internal (after the CPP, by the printed letters), state not stated
notes: phylomer CPP 1746c27 fused to N-terminal β-lactamase fragment and SpyTag
[1]; 8 µM in CHO-K1/C-BLA cells, time after addition of CCF2-AM dye, imaged at 30, 60, 120 min, Figure S2
  earliest time at which β-lactamase complementation signal is detectable: 30 min
[1]
  cytosolic delivery and β-lactamase complementation signal by confocal microscopy: cytosolic delivery

B2: N-BLA_SpyT: N-terminal β-lactamase fragment fused to SpyTag; No CPP negative control of split assay (protein)
chain: MGHHHHHHGATLEVLFQGPGGSQLHPETLVKVKDAEDQLGARVGYIELDLNSGKILESFRPEERFPMMSTFKVLLCGAVLSRIDAGQEQLGRRIHYSQNDLVEYSPVTEKHLTDGMTVRELCSAAITMSDNTAANLLLTTIGGPKELTAFLHNMGDHVTRLDRWEPELNEAIPNDERDTTMPAAMATTLRKLLTGGGSASGGSGTGATSGAHIVMVDAYKPTKGVDG
[1]
  cytosolic delivery and β-lactamase complementation signal by confocal microscopy: minimal evidence of internalization
[2]
  β-lactamase complementation signal (% blue viable cells): negligible effect

B3: 0084_N-BLA_SpyT: phylomer CPP 0084 fused to N-terminal β-lactamase fragment and SpyTag (protein)
chain: MASRKQKSLQTKLAENPPVPRKKRQSRPRWKQWLQKASSGSHHHHHHGTGAGSGHPETLVKVKDAEDQLGARVGYIELDLNSGKILESFRPEERFPMMSTFKVLLCGAVLSRIDAGQEQLGRRIHYSQNDLVEYSPVTEKHLTDGMTVRELCSAAITMSDNTAANLLLTTIGGPKELTAFLHNMGDHVTRLDRWEPELNEAIPNDERDTTTPAAMATTLRKLLTGGGSASGGSGTGATSGAHIVMVDAYKPTKGGTGGS
modifications: left off: His6, internal (after the CPP, by the printed letters), state not stated
notes: phylomer CPP 0084 fused to N-terminal β-lactamase fragment and SpyTag
[1]
  cytosolic delivery and β-lactamase complementation signal by confocal microscopy: cytosolic delivery

B4: 1746_N-BLA_SpyT: phylomer CPP 1746 fused to N-terminal β-lactamase fragment and SpyTag (protein)
chain: MASPLKPKKPKTQEKKKKQPPKPKKPKTQEKKKKQPPKPKRASSGSHHHHHHGTGAGSGHPETLVKVKDAEDQLGARVGYIELDLNSGKILESFRPEERFPMMSTFKVLLCGAVLSRIDAGQEQLGRRIHYSQNDLVEYSPVTEKHLTDGMTVRELCSAAITMSDNTAANLLLTTIGGPKELTAFLHNMGDHVTRLDRWEPELNEAIPNDERDTTTPAAMATTLRKLLTGGGSASGGSGTGATSGAHIVMVDAYKPTKGGTGGS
modifications: left off: His6, internal (after the CPP, by the printed letters), state not stated
notes: phylomer CPP 1746 fused to N-terminal β-lactamase fragment and SpyTag
[1]
  cytosolic delivery and β-lactamase complementation signal by confocal microscopy: cytosolic delivery
